Patent US7507412B2, “Glycoprotein VI fusion proteins” (Merck Patent GmbH, priority 2001, dated 2009)

T1: collagen type III (Homo sapiens, UniProt P02461)
T1 sequence (P02461 154-1221 limits assumed): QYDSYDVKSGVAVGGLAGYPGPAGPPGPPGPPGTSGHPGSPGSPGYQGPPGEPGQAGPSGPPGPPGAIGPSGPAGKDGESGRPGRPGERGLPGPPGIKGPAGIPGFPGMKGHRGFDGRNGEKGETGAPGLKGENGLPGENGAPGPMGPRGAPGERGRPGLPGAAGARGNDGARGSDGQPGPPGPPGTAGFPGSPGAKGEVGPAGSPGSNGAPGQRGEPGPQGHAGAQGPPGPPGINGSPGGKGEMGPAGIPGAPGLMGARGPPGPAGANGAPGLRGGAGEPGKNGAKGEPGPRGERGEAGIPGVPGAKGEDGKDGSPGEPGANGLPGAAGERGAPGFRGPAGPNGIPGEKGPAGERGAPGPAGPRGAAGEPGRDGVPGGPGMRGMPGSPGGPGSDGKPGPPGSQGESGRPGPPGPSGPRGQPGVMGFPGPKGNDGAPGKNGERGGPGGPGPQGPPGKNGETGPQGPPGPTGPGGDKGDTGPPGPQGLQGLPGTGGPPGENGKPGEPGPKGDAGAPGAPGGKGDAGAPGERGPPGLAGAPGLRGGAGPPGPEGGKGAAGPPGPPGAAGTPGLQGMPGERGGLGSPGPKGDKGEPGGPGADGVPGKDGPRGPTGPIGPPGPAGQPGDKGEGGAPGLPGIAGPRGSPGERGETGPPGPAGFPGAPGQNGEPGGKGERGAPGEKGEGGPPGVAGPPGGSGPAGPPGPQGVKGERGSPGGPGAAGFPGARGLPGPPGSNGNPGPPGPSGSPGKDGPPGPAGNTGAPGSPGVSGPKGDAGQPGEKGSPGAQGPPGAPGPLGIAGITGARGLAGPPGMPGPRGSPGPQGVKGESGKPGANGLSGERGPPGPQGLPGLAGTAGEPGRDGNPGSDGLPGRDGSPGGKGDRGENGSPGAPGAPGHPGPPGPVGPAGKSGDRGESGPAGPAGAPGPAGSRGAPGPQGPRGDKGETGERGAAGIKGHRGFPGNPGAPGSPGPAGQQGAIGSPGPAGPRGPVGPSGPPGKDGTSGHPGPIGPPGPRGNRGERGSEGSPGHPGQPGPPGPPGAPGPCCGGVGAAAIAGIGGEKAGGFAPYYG

T2: human collagen type III (Sigma) (human, UniProt P02461 154-1221, limits assumed)
T2 construct: Purified natural collagen immobilised on the chip (331 RU); also called Collagen type III (human)
T2 sequence (looked up): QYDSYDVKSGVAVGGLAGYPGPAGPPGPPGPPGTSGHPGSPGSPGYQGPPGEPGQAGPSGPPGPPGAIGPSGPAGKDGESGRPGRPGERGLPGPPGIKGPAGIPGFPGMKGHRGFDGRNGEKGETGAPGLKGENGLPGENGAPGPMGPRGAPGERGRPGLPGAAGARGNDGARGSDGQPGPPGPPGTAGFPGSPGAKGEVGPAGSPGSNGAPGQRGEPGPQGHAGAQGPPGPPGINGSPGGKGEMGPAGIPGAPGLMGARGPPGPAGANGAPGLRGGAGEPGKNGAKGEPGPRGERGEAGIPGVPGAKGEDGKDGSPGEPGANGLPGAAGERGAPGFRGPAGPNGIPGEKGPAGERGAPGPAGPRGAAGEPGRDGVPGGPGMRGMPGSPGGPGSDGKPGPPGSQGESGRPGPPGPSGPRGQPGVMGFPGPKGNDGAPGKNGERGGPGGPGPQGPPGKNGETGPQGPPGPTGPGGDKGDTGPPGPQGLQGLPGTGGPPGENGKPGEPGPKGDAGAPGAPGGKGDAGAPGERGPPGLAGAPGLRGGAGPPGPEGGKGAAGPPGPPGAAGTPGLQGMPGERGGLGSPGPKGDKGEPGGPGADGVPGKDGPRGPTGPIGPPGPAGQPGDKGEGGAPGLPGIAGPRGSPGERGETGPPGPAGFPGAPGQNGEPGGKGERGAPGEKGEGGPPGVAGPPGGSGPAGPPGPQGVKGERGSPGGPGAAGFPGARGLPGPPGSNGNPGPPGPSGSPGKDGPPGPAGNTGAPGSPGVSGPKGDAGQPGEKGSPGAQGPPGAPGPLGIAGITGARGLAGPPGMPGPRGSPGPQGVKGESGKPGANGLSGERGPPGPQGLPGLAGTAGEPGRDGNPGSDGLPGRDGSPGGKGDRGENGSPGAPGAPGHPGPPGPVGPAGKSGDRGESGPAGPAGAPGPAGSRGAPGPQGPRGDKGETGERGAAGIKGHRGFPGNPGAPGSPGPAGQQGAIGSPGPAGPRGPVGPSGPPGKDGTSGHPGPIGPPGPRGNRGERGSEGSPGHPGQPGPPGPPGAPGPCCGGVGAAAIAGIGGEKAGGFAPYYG


Tests used:
collagen type III [1] = target: T1, collagen type III; experiment: ELISA: GPVI-Fc binding at collagen-coated microtiter plates; conditions: HEPES binding buffer pH 7.4, FIG. 4
Source text: GPVI-Fc, solved in HEPES buffer (pH 7.4) containing 1% BSA and 0.05% Tween 20, was allowed to bind at collagen-coated microtiter plates. The amount of collagen-bound GPVI-Fc was calorimetrically detected by an anti-Fc antibody conjugated with horse radish peroxidase. Non-specific binding was estimated by a collagen non-specific Fc fusion protein applied instead of GPVI-Fc. Data shown as mean (n=2).
In principle, collagen coated microtiter plates are used as a matrix and GPVI-Fc as the ligand. The detection of bound GPVI-Fc is carried out by an anti-Fc antibody conjugated with horse radish peroxidase which binds specifically at the Fc moiety. After addition of peroxidase substrate, the amount of bound GPVI-Fc is reflected by an increase in absorption.
The polystyrol microtiterplates are coated with 50 μl of 20 μg/ml collagen type III suspended in TRIS buffered saline pH 8.0 for 12 h. Non-bound collagen is removed by washing. Afterwards, free protein binding sites are blocked by 5% (w/v) milk powder and 0.05% (v/v) Tween® 20 both solved in HEPES buffer (pH 7.4).
GPVI-Fc, in a concentration range of 0.1-100 nM, is solved in binding buffer (HEPES, 1% (w/v) bovine serum albumin, 0.05% (v/v) Tween® 20, pH 7.4). […]
Fifty μl of GPVI-Fc solution are given into each well. […] Finally, the amount of bound GPVI-Fc is calorimetrically detected by the peroxidase reaction.

human platelets = experiment: Collagen-induced platelet aggregation, determined turbidometrically; format: cell-based; conditions: GPVI-Fc added prior to collagen, 10 μg/ml collagen, FIG. 6
Description: Platelet aggregation is turbidometrically determined after the addition of 10 μg/ml collagen (control) and in the presence of different GPVI-Fc concentrations. Data are shown as means (n=4).
The therapeutic relevance for GPVI-antagonists to prevent collagen-induced thromboembolic complications is shown by a GPVI-Fc titration curve (FIG. 6). Briefly, stimulation of human platelets with collagen induces an aggregation within minutes. […] Therefore, collagen trapped by GPVI-Fc is no longer able to induce an aggregation of platelets. Considering the therapeutic relevance of GPVI receptor antagonism the following conclusion can be drawn from the results presented above: • (i) GPVI-Fc itself can be used as a drug to prevent collagen-induced thromboembolic complications. • (ii) Antagonism of the platelet GPVI receptor by low molecular drugs should prevent the collagen-induced aggregation.

[2] = target: T2, human collagen type III (Sigma); experiment: SPR equilibrium analysis, assuming 75000 Da and fully active protein
Description: (§1) Protein interactions were identified and characterized by SPR technology using the BIAcore® 3000 instrument (BIAcore®, Freiburg, Germany) and methodology (Johnsson and Lindqvist, 1992; Johnsson et al., 1991). Coupling reagents were used according to protocols developed by the supplier. Coupling to the CM 5 sensor chip was done via activated carboxylate groups to free amine groups of human collagen type III (Sigma®). The pH-scouting and the coupling chemistry was performed under standard conditions (Johnsson and Lindqvist, 1992; Johnsson et al., 1991). For coupling the collagen was diluted to 0.125 µg/ml into 10 mM acetate buffer pH 4.5, resulting in 331 RU immobilized material.
(§2) For the binding experiments purified recombinant glycoprotein VI was used. The protein was diluted into 20 mM Hepes, pH 7.4, 150 mM NaCl, 5 mM EDTA, 0.005% Tween® 20. All binding experiments were performed at 25° C. and performed in duplicates.

[3] = target: T2, human collagen type III (Sigma); experiment: SPR, BIAcore 3000, collagen type III immobilised, GPVI in solution, 25 C
Description: as §1, §2

collagen type III [4] = target: T1, collagen type III; experiment: Binding of GPVI to collagen type III measured by surface plasmon resonance (BIAcore 3000); design: purchased Sigma
Source text: The known interaction of GPVI to Collagen was used to develop a binding test with the BIAcore 3000. The binding of proteins to immobilized ligands can be monitored using the phenomenon of surface plasmon resonance (SPR). This technique can give results regarding the affinity and kinetics of interacting molecules in solution.
In this assay human collagen type III was immobilized on the sensor surface as stated in the methods and purified soluble GPVI was passed over the collagen surface.
as §1, with “μg/ml” for “µg/ml”
as §2
The titration with glycoprotein VI was performed at concentrations ranging from 0.2 μg/ml to 50 μg/ml.
Total protein concentrations were determined by the BCA method (Pierce) The kinetic of the interaction of GPVI with collagen can be observed in the sensorgram seen in FIG. 7. In the experiment increasing concentrations of purified GPVI were passed over the collagen type III surface.

Molecule	concentration at which collagen-binding sites are completely occupied (saturation curve) (collagen type III [1])	suppression of collagen-induced platelet aggregation (human platelets)	Kd [2] [nM]	koff [3] [s⁻¹]	dissociation rate constant from the collagen surface (collagen type III [4]; 25° C.) [s⁻¹]	time until binding reaches saturation (collagen type III [4]; 25° C., GPVI 0.2-50 μg/ml)	half maximal concentration of saturation for the GPVI/collagen interaction (collagen type III [4]; equilibrium binding signal, non linear fit, 1:1 binding model, FIG. 8) [µg/mL]
GPVI-Fc: Fusion of extracellular part of GPVI (aa 21 to 269), Cys-Gly-Arg linker and Fc of IgG1, encoded in KL74A	above 100 nM	concentration-dependent reduction of platelet-aggregation					
purified recombinant glycoprotein VI (receptor, UniProt Q9HCN6 21-269, looked up, also called GPVI; purified soluble GPVI) QSGPLPKPSLQALPSSLVPLEKPVTLRCQGPPGVDLYRLEKLSSSRYQDQAVLFIPAMKRSLAGRYRCSYQNGSLWSLPSDQLELVATGVFAKPSLSAQPGPAVSSGGDVTLQCQTRYGFDQFALYKEGDPAPYKNPERWYRASFPIITVTAAHSGTYRCYSFSSRDPYLWSAPSDPLELVVTGTSVTPSRLPTEPPSPVAEFSEATAELTVSFTNEVFTTETSRSITASPKESDSPAGPARQYYTKGN			~120	0.003	0.003	about 200 seconds	9
